Reference: PMC10325903, “Prediction of cooperative homeodomain DNA binding sites from high-throughput-SELEX data”

Target: Bsx HD fragment (UniProt Q810B3 84-193)
Assay: EMSA; EMSA, 34 nM IRDye700 probe, room temperature 20 min, 4% polyacrylamide gel 150 V 2 h; binding buffer as in cited ref 35 (not given)
Settings: protein: recombinant; tags: N-terminal 6xHis (pET-14b or pET-14P; may be cleaved); chain copies: 2; label: 5' IRDye700 on bottom strand; blunt

Bsx HD fragment, sequence (Q810B3 84-193): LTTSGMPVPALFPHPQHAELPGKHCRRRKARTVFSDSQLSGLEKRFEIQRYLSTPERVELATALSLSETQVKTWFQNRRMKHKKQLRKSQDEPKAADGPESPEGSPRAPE

Row | Binder | cooperativity factor (tau) [Tau cooperativity factor]
1 | Bsx_SELEX_1 (dsDNA) DNA 1: TATGAAATCAATTATCTCATTAAGTTCGTAGTGCGGGCGTGGCT DNA 2: AGCCACGCCCGCACTACGAACTTAATGAGATAATTGATTTCATA | 9.8 ± 1
2 | Bsx_SELEX_1+1 (dsDNA) DNA 1: TATGAAATCAATTATCGTCATTAAGTTCGTAGTGCGGGCGTGGCT DNA 2: AGCCACGCCCGCACTACGAACTTAATGACGATAATTGATTTCATA | 0.9 ± 0.3
